Reference: article PMC2917276 (Acta Crystallographica Section D: Biological Crystallography, 2010)

molecular target: T1, Recombinant human IL-13 (human, UniProt P35225); experiment: SEC; Fab mixed with IL-13 at a Fab:IL-13 molar ratio of 1:1.2, 20 min at 277 K; Superdex 200 10/300 in 20 mM HEPES pH 7.5, 0.1 M NaCl; elution compared with the free Fab; settings: both partners purified
T1 construct: interleukin-13, human, recombinant; source: bought: R&D Systems (catalog No. 213-IL/CF), reconstituted in PBS pH 7.4
T1 sequence (P35225 35-143): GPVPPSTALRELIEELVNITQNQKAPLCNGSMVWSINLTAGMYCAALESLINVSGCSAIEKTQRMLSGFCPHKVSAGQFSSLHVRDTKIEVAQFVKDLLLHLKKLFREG

Row | binding result | Binder
1 | binds | H2L6 Fab (Fab, V domains shown, humanized version of C836 (CDRs grafted into human variable framework segments), human G1 constant domain; humanized version of C836 (CDRs grafted into human variable framework segments), human kappa constant domain) VH: QVTLKESGPVLVKPTETLTLTCTVSGFSLSTYGMGVGWIRQPPGKALEWLAHIWWDDVKRYNPALKSRLTISKDTSKSQVVLTMTNMDPVDTATYYCARMGSDYDVWFDYWGQGTLVTVSS VL: EIVLTQSPATLSLSPGERATLSCRASKSISKYLAWYQQKPGQAPRLLIYSGSTLQSGIPARFSGSGSGTDFTLTISSLEPEDFAVYYCQQHNEYPYTFGQGTKLEIK
2 | binds | M1295 Fab (Fab, V domains shown, human G1 constant domain; human kappa constant domain) VH: QVTLKESGPVLVKPTETLTLTCTVSGFSLSTYGVGVGWIRQPPGKALEWLAHIWWDDVKRYNPALKSRLTISKDTSKSQVVLTMTNMDPVDTATYYCARLGSDYDVWFDYWGQGTLVTVSS VL: EIVLTQSPATLSLSPGERATLSCRASKSISKYLAWYQQKPGQAPRLLIYSGSTLQSGIPARFSGSGSGTDFTLTISSLEPEDFAVYYCQQHDYPYTFGQGTKLEIK
3 | binds | C836 Fab (Fab, V domains shown, mouse VH of hybridoma mAb C836 joined to the human G1 constant region (Fab part); mouse VL of hybridoma mAb C836 joined to the human kappa constant region; Chimeric Fab; also called His-tagged C836 Fab) VH: QVTLKESGPGILQPSQTLSLTCSFSGFSLSTYGMGVGWIRQPSGKGLEWLAHIWWDDVKRYNPALKSRLTISKDTSGSQVFLKIASVDTSDTATYYCARMGSDYDVWFDYWGQGTLVTVSA VL: DVQITQSPSYLAASPGETITLNCRASKSISKYLAWYQEKPGKTNKLLIYSGSTLQSGIPSRFSGSGSGTDFTLTISSLEPEDFAMYFCQQHNEYPYTFGGGTKLEIK
